The nature of the data set: protein stability index of a GFP-peptide fusion (GPS, HEK-293T) (PSI 1-6); higher = more stable.
Where [1] appears, read: treatment: DMSO, c terminus: a fixed tail appended.
Setting [2] is: treatment: MLN4924 1 uM, 8 h, c terminus: a fixed tail appended.
Setting [3] is: treatment: DMSO, c terminus: native.
Where [4] appears, read: treatment: MLN4924 1 uM, 8 h, c terminus: native.

Experimental findings from the supplement of paper PMC10567573 are described below.

± gives the standard deviation.
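Note: 24-mer peptide tiles fused after GFP, lentivirally expressed, FACS-sorted into six equal bins by GFP/DsRed ratio, decoded by Illumina sequencing, PSI is the read-weighted mean bin number.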

For LQTSLENGTRVQEEPELVFTLGDC [FKBP8], the protein stability index was found to be 4.34 ± 0.2 under setting [1] and 4.77 ± 0.25 under setting [2].
For LREENKALREENRMLSKENKILQV [CBY2] the same measures were 4.75 ± 0.12 and 4.69 ± 0.15.
For LRGLCRPLRPLLGFRESDSAKPAS [C6orf223] the same measures were 3.31 ± 0.32 and 3.44 ± 0.23.
In the case of LRHLSPTPSEEHMKNKNNVTEFIL [OR4A15], the protein stability index was determined as 3.27 ± 0.18 under setting [1] and 3.36 ± 0.12 under setting [2].
The matching figures for LRNCKTYQARKPLWFYNTSLKFFL [RHOBTB3]: 2.68 ± 0.55 and 2.84 ± 0.87.
On to LRRFVVRTMCAVLGLVARQEDSGL [AUP1], for which the protein stability index under setting [1] is 2.17 ± 0.71 and the protein stability index under setting [2] was 1.91 ± 0.095.
The matching figures for LRTIPSPYPASKADIPSVAFSSRL [DCAF4]: 2.79 ± 0.34 and 2.94 ± 0.35.
The matching figures for LSAEPGWQAKREEEEEEEEEAEAG [CHGA]: 5.62 ± 0.081 and 5.4 ± 0.59.
Consider LSCTLVPRSGEQAEGSPGGPGDSQ [CDKN1A], for which the protein stability index reads like this: under setting [1], 5.03 ± 0.41; under setting [2], 5.05 ± 0.13.
For LSEIFPGGIRGRAMALTSSMNWGI [SLC2A12] the same measures were 1.91 ± 0.4 and 2.2 ± 0.097.
The matching figures for LSPEVLRKDPYGKPVDMWACGVIL [CAMK2D]: 2.74 ± 0.55 and 2.14 ± 0.71.
The matching figures for LSQAGQKTSAALSTVGSAISRKLG [TPD52L2]: 3.67 ± 0.22 and 3.92 ± 0.27.
As for LSVGQYNCPGQYTFSMPSDSHVSS [CD69], the protein stability index runs as follows: under setting [1], 3.05 ± 0.28; under setting [2], 3.07 ± 0.27.
The matching figures for LTDDKQVLNTQGQKTSGQHMIQGA [DLC1]: 5.06 ± 0.2 and 5.04 ± 0.14.
For LTEDYFPSVPDNAELVLLTLGQAW [DFFB], the protein stability index amounted to 2.34 ± 0.23 under setting [1] and 2.34 ± 0.22 under setting [2].
The matching figures for LTLSAGDLGGSIYANLALSGLIEI [SLC22A15]: 2.77 ± 0.91 and 3.43 ± 0.74.
For the sequence LTPLELLLRQLGRDAGATPSAAGA [ANKRD9], the protein stability index by setting is: under setting [1], 2.42 ± 0.16; under setting [2], 2.58 ± 0.23.
As to LTPSSKEMMSQALKATFSGFTKEQ [ETS1], the protein stability index was 3.87 ± 0.24 under setting [1] and 3.74 ± 0.19 under setting [2].
For LTPTYLNQEDAIHFHRTLKEACDQ [CPOX] the same measures were 4.11 ± 0.25 and 4.35 ± 0.29.
The matching figures for LTQIDGTLSTIEFQREALENSHTN [CHMP4C]: 4.34 ± 0.25 and 4.57 ± 0.22.
As to LVAPVLEPGKQERDVYLPAGKWRS [MYORG], the protein stability index by setting is: under setting [1], 3.49 ± 0.16; under setting [2], 3.75 ± 0.2.
For the sequence LVEDMQRELGRLRQQVTNHGRGTE [ZNF263], the protein stability index reads like this: under setting [1], 3.35 ± 0.33; under setting [2], 3.55 ± 0.22.
In the case of LVTLPVSFAQLKNLKWLDLKDNPL [LRRC59], the protein stability index is 2.29 ± 0.082 under setting [1] and 2.31 ± 0.23 under setting [2].
For LWEALCSQGAISEGAQRDRFPGRK [C22orf31] the same measures were 3.11 ± 0.12 and 3.3 ± 0.32.
The matching figures for MAEGDNRSTNLLAAETASLEEQLQ [ARL6IP1]: 5.37 ± 0.31 and 5.43 ± 0.17.
The matching figures for MATPDAGLPGAEGVEPAPWAQLEA [FANCE]: 4.86 ± 0.32 and 4.96 ± 0.27.
As for MDEAVGDLKQALPCVAESPTVHVE [TRIP13], the protein stability index runs as follows: under setting [1], 5.18 ± 0.13; under setting [2], 5.01 ± 0.19.
The matching figures for MDLLTQSLGVDTLPPPDPNPPRAE [APBB1IP]: 4.85 ± 0.2 and 4.87 ± 0.14.
For MESLISAPLVKTLEKEEEKDLVMY [CDC25B], the protein stability index is, setting by setting: under setting [1], 4.56 ± 0.062; under setting [2], 4.61 ± 0.24.
Consider MEVQHFRTIYHMFIAGLCVFIIST [SOAT2], for which the protein stability index is, setting by setting: under setting [1], 2.95 ± 0.27; under setting [2], 3.18 ± 0.52.
MGEDEDGLSEKNCQNKCRIALVEN [PLD5]: the protein stability index came to 5.14 ± 0.51 under setting [1] and 4.82 ± 0.11 under setting [2].
As for MGESSEDIDQMFSTLLGEMDLLTQ [APBB1IP], the protein stability index reads like this: under setting [1], 4.25 ± 0.11; under setting [2], 4.08 ± 0.32.
For MGVGKASASDGSSFVVARYFPAGN [GLIPR2] the same measures were 3.13 ± 0.26 and 2.96 ± 0.26.
For the sequence MGYMLFNERMLESYLHAKKYLKPS [CARM1], the protein stability index turned out to be 2.35 ± 0.17 under setting [1] and 2.08 ± 0.32 under setting [2].
As for MHDAFEPVPILEKLPLQIDCLAAW [VPS39], the protein stability index is, setting by setting: under setting [1], 2.56 ± 0.34; under setting [2], 2.56 ± 0.27.
With MIRKGGDQTSLLVVDKETDNMYRL [PDZK1], the protein stability index under setting [2] was 3.17 ± 0.25.
On to MKAHSFVRENVPRVLNSAKEKSST [SOAT1], for which the protein stability index is 4.58 ± 0.12 under setting [1] and 4.57 ± 0.13 under setting [2].
In the case of MKGRGQLEKPPAPNQAMVVAAAGD [TBC1D10A], the protein stability index came to 5 ± 0.26 under setting [1] and 4.94 ± 0.49 under setting [2].
In the case of MKTFVSPEAISPDLVKKIRDFHRK [TRIM15], the protein stability index is 3.17 ± 0.13 under setting [1] and 3.07 ± 0.16 under setting [2].
With MLEDGPHNANRGQRLLAFSRGRA [CCDC70], the protein stability index is, setting by setting: under setting [3], 2.99 ± 0.63; under setting [4], 2.77 ± 0.41.
Consider MLHHHCRRNPELQEELQIQAAVAA [ASB7], for which the protein stability index came out at 3.47 ± 0.29 under setting [1] and 3.59 ± 0.26 under setting [2].
For MNGEECAEDLRMLDASGEKMNGSH [IKZF1] the same measures were 5.15 ± 0.39 and 5.31 ± 0.18.
The matching figures for MNGHQNGLDSPPLYPSAPILGGSG [ESRRG]: 3.91 ± 0.25 and 3.93 ± 0.3.
For MQPFNYVTLQCLAARALDKNKIPY [FEM1A], the protein stability index was found to be 3.25 ± 0.38 under setting [1] and 2.97 ± 0.31 under setting [2].
The matching figures for MQRPYDSRTCIGSSHSRGPLSWAP: 3.1 ± 0.31 and 2.94 ± 0.05.
The matching figures for MTEPWLALGTSWTLPLQDRELGPE [CABP4]: 3.54 ± 0.39 and 4.16 ± 0.2.
For MTKAGSKGGNLRDKLDGNELDLSL [LRRC59] the same measures were 4.63 ± 0.15 and 4.63 ± 0.081.
Take MTMIVSLAAVAWVGQQVHNLLLTY [ARL6IP1]: the protein stability index worked out at 3.31 ± 0.37 under setting [1] and 3.25 ± 0.32 under setting [2].
For MVFSGLCPLLLGSVMAIERCIGVT [PTGFR] the same measures were 3.4 ± 0.078 and 3.37 ± 0.41.
With MVGEEKMSLRNRLSKSRENPEEDE [SOAT1], the protein stability index runs as follows: under setting [1], 5.52 ± 0.16; under setting [2], 5.44 ± 0.21.
For MWVRFRAFEAARDLDACALVRGHR [ZSWIM9] the same measures were 2.17 ± 0.25 and 2.06 ± 0.22.
For the sequence NDYIVPRHCPELAEMSRVSIRILD [HNF4A], the protein stability index by setting is: under setting [1], 3.08 ± 0.19; under setting [2], 3.29 ± 0.24.
The matching figures for NEFLCTLQKKLDNLQCLYCEKTFR [ZNF277]: 2 ± 0.4 and 2.38 ± 0.32.
The matching figures for NEFLEAFRLVEKSCPEGDASECPQ [PPEF2]: 5 ± 0.75 and 5.17 ± 0.32.
For NEKITMQNLNDRLASYLEKVRALE [KRT13] the same measures were 2.86 ± 0.4 and 3 ± 0.32.
On to NESSLASTLKTLLFFTALMITVPI [VMA21], for which the protein stability index by setting is: under setting [1], 2.92 ± 0.19; under setting [2], 3.07 ± 0.2.
As to NGDDMFVTFAAMQAQQGRSSLVWL [MCOLN1], the protein stability index was determined as 3.18 ± 0.54 under setting [1] and 2.83 ± 0.48 under setting [2].
As for NIYENGDVCISILHPPVDDPQSGE [UBE2R2], the protein stability index is, setting by setting: under setting [1], 4.37 ± 0.1; under setting [2], 4.55 ± 0.087.
For NKDGIGEICLWGRHIFMGYLESET [ACSBG2], the protein stability index under setting [1] was found to be 2.29 ± 0.46 and the protein stability index under setting [2] is 2.02 ± 0.31.
Turning to NKKHIHSRSTLECAYRTHLVAGIG [SMG5], the protein stability index runs as follows: under setting [1], 2.37 ± 0.29; under setting [2], 2.39 ± 0.19.
NLAGFILGCQGAQFVSSVPRCDLV [FAM189A2]: the protein stability index stood at 2.66 ± 0.59 under setting [1] and 2.58 ± 0.57 under setting [2].
For NLDANLAFASFTSGVVRIWDLRDQ [TLE6] the same measures were 2.3 ± 0.28 and 2.36 ± 0.33.
For NLPSGGKGFKLRRQPSEPKRSCC [RAB22A], the protein stability index stood at 3.89 ± 0.34 under setting [3] and 4 ± 0.35 under setting [4].
With NMDPKAAEEEEEEEEEVDLACTPT [CCND1], the protein stability index under setting [1] was 5.6 ± 0.27 and the protein stability index under setting [2] amounted to 5.64 ± 0.13.
Take NNQDFIPFTKKRVGVDRAFPLKPM [ZC2HC1C]: the protein stability index by setting is: under setting [1], 2.85 ± 0.39; under setting [2], 3.26 ± 0.45.
As to NNWYYISPRLTFQCLEDLVNHYSE [SLA], the protein stability index is, setting by setting: under setting [1], 2.44 ± 0.35; under setting [2], 2.23 ± 0.38.
As for NPLICPVCTKYNLRITSGVVVCQC [RPAIN], the protein stability index runs as follows: under setting [1], 3.91 ± 0.32; under setting [2], 4.16 ± 0.25.
Consider NPNGGSFEEVLSSTAHASAQSLAG [TPD52L1], for which the protein stability index reads like this: under setting [1], 4.76 ± 0.12; under setting [2], 4.9 ± 0.11.
For NPVYYGPSDFFIGAVIEVFGHRFI [EFHC1] the same measures were 3.04 ± 0.7 and 2.44 ± 0.79.
With NQGFLKVERYHNLCQKQVKAQLPR [FBXO28], the protein stability index came to 2.76 ± 0.47 under setting [1] and 2.64 ± 0.45 under setting [2].
The matching figures for NQGTQITVEDLFYNIATRRKALKN [MLH1]: 3.29 ± 0.32 and 3.37 ± 0.48.
As for NQLSQAELDELASKAPVLTYGQPK [EFHC1], the protein stability index was found to be 4.78 ± 0.11 under setting [1] and 4.79 ± 0.072 under setting [2].
